Test results as given in patent US20100285988A1.
Where two headings read alike, the source gives them in different places.

Tests used:
[1] = biological target: T1, γ-secretase (human; HeLa cell membrane / solubilized HeLa membrane; endogenous in HEK293 cells) (human), P49768; conditions: modification not given
[2] = biological target: T1, γ-secretase (human; HeLa cell membrane …); conditions: modification not given; remark: listed apart in the source

| IC50 [1] | IC50 [2] | Binder |
| --- | --- | --- |
| 14 µM | – | KLVFFAED |
| – | 8.9 µM | LVFFAEDV |
